# Reference: the DeepSol protein solubility set
# Assay: soluble on expression in E. coli; label from the status in PepcDB or PDB records
row,Sequence,soluble on expression in E. coli
1,MSLNYRFRFAPYQRPFKTPLQTHHGLWTVREGIMLSLRDERGRITQGEIVPLPWFGTETLEEAIAFCAAFGGNITSEQIAAIPDALPACQFGFETAQLNLASTENLVSLPPTKFCQLIRRSPTMFQDLQTLLQQGFRTFKLKIALDIPATEIALCQQILETLPADGRLRLDANGGLTLEQVKQWLDWGESQAKLEFIEQPLAPAHFSNLLQLNAEFQTQIALDESVSQVASLEHCYAQGWRGVFVIKLAIAGFPSRLQDVCQTKKLDFVLSTVFETAVGQRALLNFSQDFVQSRRALGMGGTQWIEGHHHHHH,soluble
2,MASKPEKRVASSVFITLAPPRRDV,soluble
3,GMEEINKYIQNSSETGGEIYNLIEELFPICRSITGNGVRKTMDIIRKHIPLEIHEVKSGTKVFDWTVPKEWNIKDAYVRNSKGEKVIDFKENNLHVMSYSVPVHKTMTLDELKPYLHTIPGNKDRIPYLTSYYKENWGFSLTQNKFDELCDDDYEVVIDSSLEDGSLTYGEYYIRGELEEEILLTTYTCHPSMCNDNLSGVALITFIAKALSKLKTKYSYRFLFAPETIGSITWLSRNEDKLKNIKMGLVATCVGDAGIKNYKRTKFGDAEIDKIVEKVLMHCGSEYYVADFFPWGSDERQFSSPGINLSVGSLMRSCYGFDGYHTSADNLCYMNKDGLADSYKTYLEVIYTIENNRTYLNLNPKCEPQLGKRGIYRMIGGGSDYPFDEFAMFWVLNMSDGKNSLLDIAYKSGMEFRRIKYAADALYRVELLKLV,soluble
4,MASETSQFGIETDSITLQRYVLQEQRKHADASGELTALLTNMLVAIKAIASATQKAGLAKLYGIAGATNVQGEEVKKLDVLSNELMINMLKSSYTTCLLVSEENDELIEVEEQRRGKYIVTFDPLDGSSNIDCLVSIGTIFGIYKKRGDGPATVDDVLKPGKEMVAAGYALYGSATMVVLSTGDGVNGFTLDPSIGEFILTHPNMKCKEKGSIYSLNEGYAQTWSKGFAEYIRTRKYPEAGKKAMGQRYVGSMVADVHRTILNGGIFLYPPTVSAPNGKLRLLYECNPMAYIIEQAGGLATTGKERILDIQPTQIHQRAPIILGSKLDVEEALEYLAKYDN,not soluble
5,GPGSMKTIRKRMRLSVSGRSSARSGMSSDTRLPAAVLERETKVINYSHSTSRAMAAQLENCVRLIRGYQASLQYCNEEIEGALLSLGVATTHSLISSITSVMEGLDTLSGVCRAMHEGYNEEVRHREDLHTSLTGAYISLKELHEATENELREVVAERDRKVAAFGKAVAYVEAVVAERMLWQEANGYNCAGLPVVEMSFSESCHEALRKFDDTVSEAQGEGHSNAESLLASTDVPQTLAKRWDNVENLRHTNGLPSARVLYVPPKDEVELLRNVLEMGTGDRALMWDVQQRERALQDSLTNIHVFGHSCLKALHSMREELAEFRQWFLTIDRKCEPIVVAMRKLGNGVCGLSSASDKNLPH,not soluble
6,MSLSSKRDIEANTDLNSITYIPTFPEPFERDNSHTTASFVSIQIRLLVASVTEENFLDTEHQIYYLLQRGSFSVYISYWKLLIQLFVNEFEAQQQKRDLNLPFRFDFSNLVHRLLYNLAQELITRTPDTIEKVKELALPLSGKYPIRPLFLSFLNKDNESDSAIIEALNPEVHPIFTTLKDLHRTNMSVSNITQNLFAVENKPNFLTMLSEFLKPLQGETLNDWIALILSEILAPGSQTSNQPSQPWIVQVPNVDVREVIEATEMGTKVNGIIKSLGTNNVNWNRVFNLMSTKFFLNKPVNATLSSLNYLFCILNSGPLVDQFFACDWSLYFKLRLSFLMYQWNYNSECLDLSSLPNIKKINKSIPLTKKSQLSLISVGKLNIELFLSRDEISKNPLFSSFHASFSEAYNNVPEYLAAVLISESKYFSLLVDNKSIIDELLISLVIKTYENNVIAFKELLKLVSKQKVIEVSRGIIASQNAQTINLVQALHDLGILDEVFEKLPIRDSLKLSPTAMHLGYLKFSEYIERNITLKTFVPTLDFIEAQTNIDELDEGHHHHHH,not soluble
7,MVPRTEIVAIEYGTPIEELKARFIESGISKIIVYKENIDNIIGYIHSSEMFREQTDWTKSVRQLPIAPETMGAHKLMKLFMQQKKSLAVVVDEFGGTSGIVALEDLVEEIFGEIEDEHDTTSYIA,not soluble
8,MKILYIVLDGAADSPTSPRKTLEEASKPNIDSLGSHAVCGMVYTVKPGVAPQSDYATLSLLGYNPDEYYPGRGPLEAFGAGIEMRRGDIALRANFATVDPGTLRIIDRRVGRSLTSREARELASAVDGMELEDGEGTALFRATIGHRGVLVLRHRSKPLSDAISNTDPAYERRGRFSVALEKYEPFIKLSNPLVEDEAAVLAARMLNEFTLKAVEILDSHPVNLAREKRGLLKANAILSRDAGGLPEEKPPSFQERFGLRGASIVEMVVERGISRYIGLDDIRVEIEGRAREEVYREEAARAVEALETHDLVYVHLKGPDEPGHDGSFEGKIRAVEDIDKHFFAPLLDRLSSAGLEPAFVVTSDHATPWDVGAHSGDPVPLMISHQSIQ,not soluble
9,GTKQEKTILNMARFIRSQALTILEKANELDADEIADIAESIHDHADEIYRSALARFGDDGENL,soluble
10,MSLRGGETLEYDPDVLDENVEIEVGDVVEIKKFEKTEVYVSGYVSRPGVYEISPKENVTLEKLLSMAGGIKGTLEEVDSIVVTRDGSVITLSPNNLDFSVKPGDVVNVKEFVPKKAYVLGYVRNPGLYTFGKNEAFTLRNLIAKAGGFVDEGQVVSVKVAGKEYSEGHHHHHH,soluble
11,NIPEIENANLKPALKDSVLPDGFYSTTNHPTHVKVNDEWIEVANPKMDAVIVVYPEEKRAETKVIRKVKKGDFVLIGHNGIRVMPPEKSREAGQLFEFMNSEVSSEKPKEAIIKRIAKEMHEIREEYKKTGTGGIAIVGGPAIIHTGGGPALAKMVELGYIQAILAGNALATHDIESALYGTSLGVNIKTAKPVTGGHKHHIYAINAINDAGNIKNAVESGVLKEGIMYQCIKNNIPYVLAGSIRDDGPIPDVITDSMVAQDKMRTTVMDKKMVIMLSTLLHSVATGNLMPSYIKTVCVDIQPSTVTKLMDRGTSQAIGVVTDVGVFLVLLLKELER,not soluble
12,MNTELQPKLEKSAVNFQAKPRKQKIRKDPNAPFIREKLELPDGHNKLLLHSCCAPCSGEVMEAILASGIEFTIYFYNPNIHPLKEYLIRKEENIRFAKKFGIPFIDADYDRQNWFDRAKGMEWEPERGIRCTMCFDMRFEKAAEYAHKHGFPVFTSCLGISRWKDMNQINGCGHRAAEKYDDVIYWDYNWRKEGGSQRMIEISKRERFYQQEYCGCVYSLRDSNKWREETGRQKIEIGKLYYSAD,not soluble
13,MCMTNSMSDALKTLEVFRPEVEEIDEREVKLSVAPDRVIAVLETLKSLGYSHLSLMTCIDWIEDSQFELVYILFSWKDGGKFIVTTRIDRNNPQFVTVKEIWPVARFYEREIHEFFGVKFSGNEDMKPLFLELWDDKPPLRKDFDPLEYSRRKFPGREYQKDVIDEAKKIFRGEING,soluble
14,MNNIGVPAREVDVVVTGAGQAGLSSAFHLRRTGFEPERDFVVLDHAPRPGGAWQFRWPSLTYRKVHGMHALPGMELTDADPSRPSSEVIAEYFDTYERTFDLRVRRPVDVTAVREGEGGRLLVQTSDGTWATRALINATGTWDRPFWPRYPGQESFRGRQLHTAQYPGPEEFAGQRVVVVGGGASGTQHLMEIAPYAASTTWVTRRPPVFREGPFSEDVGRAAVAMVEERVRRGLPPRSVVSVTGLPLNDAVRRAIADGVLDRLPVFDRITPDGVEWDDGRRVAADVILWATGFRAAIDHLAPLRLRAPGGGIRVEGTRVVADPRIHLVGYGPSASTIGANRAGRAAVRDIRRLLAGEPLTVLEHHHHHH,soluble
15,MPALDLIRPSVTAMRVIASVNAEFARELKLPPHIRSLGLISADSDDVTYIAADEATKQAMVEVVYGRSLYAGAAHGPSPTAGEVLIMLGGPNPAEVRAGLDAMVANIENGAAFQWANDAENTAFLAHVVSRTGSYLSSTAGITLGDPMAYLVAPPLEATYGIDAALKSADVQLVTYVPPPSETNYSAAFLTGSQAACKAACNAFTDAVLEIARNPIQRA,not soluble
16,MGSDKIHHHHHHMKKNIIILGLISLLAVSCGDDFLTTHPGDSVSTDLALSTEQDIDNAVNGLYDLMSSYGYYGGTMFFYGDMKGDDMQSSYNSGRTCNRCYLYDHRSTSLNAGYLWGRPFYIIRNAWNVINAIDDGKVQGSEQRLKELKGEAMTIMALCQFDLTRCFGYPYTKDKGAGWGAPIVDHAITLDENPPRSTVAKDYEFIISTLEEAIPLMSTSKNNSRMNAYAARALLSRIYLYHDDNEKAFQMASNLIEEVEGNGMYRLYTRDEYVPAWDLKNTFGTESLFEIANSTDDNGGRSSLAYLMHWNGYREIFATQKFVDELLSDPEDIRCLLLEKNVYNKNDVWWLKKWPGTDATTPSFENNYVIFRLSEVYLNAAEAGVKIGGASAVKGLNYLNAIVQRANPAKEVTAAEYTLDRVLEERSKELIGEGHRFFDMLRNGKTIVRKGGYHLPGIVEEIDWDYYKCVLPIPTDQFTFSPDMEQNPGYTKN,not soluble
17,MSIIIENSGLFSSFQDFGRKGYEHEGVIPSGALDELAHEIANRLVANDKNEATLEMTQKMATIRFTEPALIALTGGNFKAETEHMKIYPNKLYLINEGETLKFNETSRTSRVYLAVGGGFKLEKWLHSASTDFNVEIGGFEGRKLKKGDEIELKHHYSQRHLKLFENLSDKRTTDWGIDGYALSFNYVSDVFHVIKNKGTEDFKKEATRRFTTAEYSVSSKTNRVGMVLDGPQIKAYYDDMPAHQSVKRGTIQVKRDGTPIVLLNDHYTLGSYPQIGTIASYHLTKLAQKPQGSKLKFQFIDIETAEKNLIKYSNWLNQLFHGIEHRMQLEMLKMAGDPLEHHHHHH,not soluble
18,MLFTIEQLELIKKLQHTGMSSDQLLKAFGELEVPEQLQNNNTIAAALYSPLLVQHLTTPKSETPVKLTVQTVPTPVKSEPQSSNCSSPFEHPICSNAPRPIRSQRTPMKEITTLDDPNELEEFMKQGEEACILDMKTFITQYSLRQTTVAMMTGVSQPYISKLLNGNHRELSLRCRKNIYCWYLNCRRHPNKLAAFLADPTTRLETNGDGELIPQRRERYVFRPILIRMLESFFTQTPFPDLPRRVEIANACNHVLKMDKKGVGLMPKEVVSPQVVSNWFANKRKELRRRSAEASAASTSSASSSASSTANHDSVSVSSMSPRDEETSSRNTTPETAISPSPAVSTFEVSRPSAIISATSSTTSPISIPATIIPSVSPSALELFAMAQQLGVQLPVPFPTLPTHFFPFQMAPFYGNPASILKSE,not soluble
19,MGSDKIHHHHHHMNLWDKKAKTYARYQNTLNTIQKQTFEYLQNLKISFQDKSIIDIGCGTGVWTLHLAKEAKEILALDSANAMLEILQEDAKKLNLNNIKCKNLSFETWMQNNPNVKFDLAFLSMSPALQNEKDYTNFLNLAKIKIYLGWADYRKSDFLDPIFKYFNTEFKGFYKKDLENYLLEKNIFFHKIVFDETRKVQRTKEEAIENALWHLSMNKITASKETVSSFVENNITETIESKIKLLIINNL,not soluble
20,MQVRIERAERIESELEEHVGDQTFVEESRFLEEDEQREGEILDQIIFVDGKRRSFVRITTDEGITGIFAELCVGAVIWDREGGTKTLFSPDKPPVKERVLGFSQSFQEEGYEEVGGILFKVVKEGKDAMQSIDLYMRSLEIEEVRKHMDKNILIVKDGPAARELPFEENVGPIGLVKNIGVTELSKEDFKKLRFLKKGKRSKMFVSSRETPLKKVGAYVKLIDGEGIRGLVRLETYVKDDNQIPYIRKVFDDLAKTLPHLTADLPIPRLPENILPIQFLEENLSYYLTDKNYMNTRLFAYIGR,not soluble
21,MGSDKIHHHHHHMTTKKFRMEDVGLSKLKVEKNPKDVKQTEWKSVLPNEVYRVARESGTETPHTGGFNDHFEKGRYVCLCCGSELFNSDAKFWAGCGWPAFSESVGQDANIVRIVDRSHGMHRTEVRCKTCDAHLGHVFNDGPKETTGERYCINSVCMAFEKKD,not soluble
